Series [1] deals with the molecule itself. The series can be described thus: SEC-SAXS. In general terms: Size exclusion chromatography separates by hydrodynamic size, large species first.
Series [2] deals with human calmodulin (Ca^2+-CaM; apo-CaM in EDTA) (human, UniProt P0DP23 1-149). The series is described as follows: SEC.

1 molecule from paper PMC9574498 (The Journal of Biological Chemistry, 2022) can be followed below.

By stoichiometry N is commonly meant a count of units in the complex or per binding partner.

B1: human P2X7R ballast domain (P2X7BD, residues 395–595) (domain or fragment, UniProt Q99572 395-595, looked up)
chain: KPTLKYVSFVDESHIRMVNQQLLGRSLQDVKGQEVPRPAMDFTDLSRLPLALHDTPPIPGQPEEIQLLRKEATPRSRDSPVWCQCGSCLPSQLPESHRCLEELCCRKKPGACITTSELFRKLVLSRHVLQFLLLYQEPLLALDVDSTNSRLRHCAYRCYATWRFGSQDMADFAILPSCCRWRIRKEFPKSEGQYSGFKSPY
Take B1: in series [1], the “stoichiometry N” value was found to be 3. The binding result in series [2] is on record as “binds”.
